Among the data in patent publication US20150239981A1 are Kd values, retold here.

In one assay the target is FcγRIIIA-V158 (human) (UniProt P08637). In words: SPR Biacore T100, antibody immobilised, receptor as analyte 0-12800 nM, steady state fit.
A further assay addresses FcγRIIA-R131 (human) (UniProt P12318). Described as above.
In assay [1] the target is FcγRI (human) (UniProt P12314). Nature of the assay: SPR Biacore T100, FcγRI captured by pentaHis antibody, antibody as analyte 0-100 nM.
Target sequence in this assay (P12314 16-288 limits assumed): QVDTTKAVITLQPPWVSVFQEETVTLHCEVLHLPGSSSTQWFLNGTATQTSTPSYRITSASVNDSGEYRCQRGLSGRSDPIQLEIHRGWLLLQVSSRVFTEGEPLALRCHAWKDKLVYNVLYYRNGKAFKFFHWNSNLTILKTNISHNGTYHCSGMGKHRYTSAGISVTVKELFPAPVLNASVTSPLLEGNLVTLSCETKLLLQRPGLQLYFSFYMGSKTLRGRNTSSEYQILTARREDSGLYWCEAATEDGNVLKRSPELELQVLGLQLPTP
The target in assay [2] is FcγRI (human) (UniProt P12314). Nature of the assay: SPR.
Target sequence in this assay (P12314 16-288): as the sequence (P12314 16-288 limits assumed) above

Chain of FcγRIIA-R131 (human) (P12318 36-218 H167R limits assumed): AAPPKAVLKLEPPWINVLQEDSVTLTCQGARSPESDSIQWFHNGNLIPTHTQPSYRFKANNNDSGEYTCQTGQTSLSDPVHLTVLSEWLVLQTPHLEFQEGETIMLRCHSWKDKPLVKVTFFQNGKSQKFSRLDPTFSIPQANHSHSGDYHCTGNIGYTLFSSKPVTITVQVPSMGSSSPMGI
Chain of IgG4 SPLE (antibody not named, Tables 2A and 2B) (constant): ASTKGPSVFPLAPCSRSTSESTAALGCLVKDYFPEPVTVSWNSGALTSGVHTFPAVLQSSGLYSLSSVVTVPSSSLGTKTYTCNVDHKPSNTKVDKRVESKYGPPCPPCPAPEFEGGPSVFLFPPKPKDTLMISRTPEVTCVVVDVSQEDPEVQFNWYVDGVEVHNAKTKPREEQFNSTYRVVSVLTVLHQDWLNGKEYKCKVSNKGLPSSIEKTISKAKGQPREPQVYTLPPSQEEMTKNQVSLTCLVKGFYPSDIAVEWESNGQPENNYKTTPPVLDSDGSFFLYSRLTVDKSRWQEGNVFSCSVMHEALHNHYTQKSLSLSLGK
Chain of FcγRIIIA-V158 (human) (P08637 17-208 F176V limits assumed): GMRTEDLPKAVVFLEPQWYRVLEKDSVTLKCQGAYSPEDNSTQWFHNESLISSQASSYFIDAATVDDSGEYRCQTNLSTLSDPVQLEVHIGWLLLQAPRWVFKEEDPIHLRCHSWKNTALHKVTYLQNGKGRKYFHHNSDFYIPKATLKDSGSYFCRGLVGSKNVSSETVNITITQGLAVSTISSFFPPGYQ

With “WT IgG1 (antibody not named, Tables 2A and 2B)”, the values for the equilibrium dissociation constant (Kd) with FcγRIIIA-V158 (human), in the assay with FcγRIIA-R131 (human) and in the assay with FcγRI (human) [1] were 700 nM, 2 µM and 5 nM, respectively.

Consider “IgG4 SPLE (antibody not named, Tables 2A and 2B)”, for which the Kd in the assay with FcγRIIA-R131 (human) came to 10 µM.

For the substance CD20 antibody GA101 IgG1 wildtype, the Kd with FcγRI (human) [1] was 4.6 nM.

CD20 antibody GA101 IgG1 P329G: the dissociation constant Kd in the assay with FcγRI (human) [1] amounted to 5.7 nM.

On to GA P329G, for which the Kd with FcγRI (human) [2] came out at 12 nM.

The substance IgG4 Wt gave a Kd in the assay with FcγRI (human) [2] of 14 nM.
